Measured values from patent US5885831.

Columns and labels:
[1] = molecular target: LexA-TIM1 (Drosophila melanogaster); test: yeast two-hybrid, β-galactosidase activity of liquid cultures, LexA-TIM1, 35 C
[2] = molecular target: LexA-TIM1 (Drosophila melanogaster); test: yeast two-hybrid, β-galactosidase activity of liquid cultures, LexA-TIM1, 28 C
[3] = molecular target: LexA-TIM1 (Drosophila melanogaster); test: yeast two-hybrid, β-galactosidase activity of liquid cultures, LexA-TIM1, 22 C

VP16-PER^L233-685 (from UniProt P07663)
fold change of the TIM interaction signal (β-galactosidase activity) against the wild type PER fragment [1]: 4.8 fold lower
fold change of the TIM interaction signal (β-galactosidase activity) against the wild type PER fragment [2]: 1.8 fold higher
fold change of the TIM interaction signal (β-galactosidase activity) against the wild type PER fragment [3]: 3.4 fold higher
